Results: patent publication US20180186896A1

Molecular target: membrane IgE C2C4 expressed on Ramos cells (in the presence of Ig-alpha and Ig-beta) (human) (UniProt P01854)
Test: flow cytometry, MFI on C2C4-expressing Ramos cells divided by MFI on non-induced cells

MFI ratio	Substance
> 5	positive control mAB anti-IgE BSW17 (antibody)
> 5	positive control mAB anti-IgE Le27 (antibody)

Substance	MFI ratio
Negative controls (right sample block, starting with no primary AB)	1
